{"source": "paper PMC3053351", "experiment_in_all_cases": "flow cytometry on cells", "key": {"[1]": {"target": "Mamu-KIR3DL05*003 (rhesus macaque)"}, "[2]": {"target": "Mamu-KIR3DL05*005 (rhesus macaque)"}, "[3]": {"target": "Mamu-KIR3DL05*008 (rhesus macaque)"}, "[4]": {"target": "Mamu-KIR3DL05*010 (rhesus macaque)"}, "[5]": {"target": "Mamu-KIR3DL05*001 (rhesus macaque)"}, "[6]": {"target": "Mamu-KIR3DL05*004 (rhesus macaque)"}}, "data": [{"substance": "Mamu-A1*00201 tetramer folded with SIV Env_(788-795) RY8 (from UniProt P61769 21-119) (peptide-MHC)", "values": [{"measurement": "MFI of tetramer staining divided by MFI of HA staining", "setting": "[1]", "value": 0.06}, {"measurement": "MFI of tetramer staining divided by MFI of HA staining", "setting": "[2]", "value": 0.03}, {"measurement": "MFI of tetramer staining divided by MFI of HA staining", "setting": "[3]", "value": 0.07}, {"measurement": "MFI of tetramer staining divided by MFI of HA staining", "setting": "[4]", "value": 0.07}]}, {"substance": "Mamu-A1*00201 tetramer folded with SIV Gag_(71-79) GY9 (from UniProt P61769 21-119) (peptide-MHC)", "values": [{"measurement": "MFI of tetramer staining divided by MFI of HA staining", "setting": "[5]", "value": 0.02}, {"measurement": "MFI of tetramer staining divided by MFI of HA staining", "setting": "[1]", "value": 1.57}, {"measurement": "MFI of tetramer staining divided by MFI of HA staining", "setting": "[6]", "value": 1.99}, {"measurement": "MFI of tetramer staining divided by MFI of HA staining", "setting": "[2]", "value": 0.55}, {"measurement": "MFI of tetramer staining divided by MFI of HA staining", "setting": "[3]", "value": 1.49}, {"measurement": "MFI of tetramer staining divided by MFI of HA staining", "setting": "[4]", "value": 1.55}]}, {"substance": "Mamu-A1*00201 tetramer folded with SIV Nef_(159-167) YY9 (from UniProt P61769 21-119) (peptide-MHC)", "values": [{"measurement": "MFI of tetramer staining divided by MFI of HA staining", "setting": "[1]", "value": 0.03}, {"measurement": "MFI of tetramer staining divided by MFI of HA staining", "setting": "[6]", "value": 0.13}, {"measurement": "MFI of tetramer staining divided by MFI of HA staining", "setting": "[2]", "value": 0.01}, {"measurement": "MFI of tetramer staining divided by MFI of HA staining", "setting": "[3]", "value": 0.03}, {"measurement": "MFI of tetramer staining divided by MFI of HA staining", "setting": "[4]", "value": 0.03}]}]}
